According to patent US20250076311A1 (Chugai, published 2025):
Changes are numbered by the printed parent chain.

T1: soluble mouse FcγRII, His-tagged (mouse, UniProt P08101 30-210, limits assumed)
T1 construct: Captured on the chip through an anti-His antibody
T1 sequence (looked up): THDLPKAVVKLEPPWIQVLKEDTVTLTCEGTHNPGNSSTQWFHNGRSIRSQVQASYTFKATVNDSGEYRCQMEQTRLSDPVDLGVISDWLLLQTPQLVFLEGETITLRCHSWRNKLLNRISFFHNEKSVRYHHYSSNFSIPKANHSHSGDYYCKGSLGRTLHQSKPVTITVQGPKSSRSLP

T2: human FcγRIIb constitutively expressed on MDCK cells (human, UniProt P31994 43-310)
T2 sequence (looked up): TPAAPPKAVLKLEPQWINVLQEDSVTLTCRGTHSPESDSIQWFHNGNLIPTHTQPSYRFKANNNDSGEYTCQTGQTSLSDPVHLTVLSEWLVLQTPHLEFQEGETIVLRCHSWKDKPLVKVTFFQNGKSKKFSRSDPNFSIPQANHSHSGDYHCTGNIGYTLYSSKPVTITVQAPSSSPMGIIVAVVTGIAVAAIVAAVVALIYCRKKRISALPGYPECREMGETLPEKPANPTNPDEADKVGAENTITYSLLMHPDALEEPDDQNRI

B1: M103205H795-P1539m/M103202L889-SK1 (antibody, human IgG1, kappa, name in EU numbering)
heavy: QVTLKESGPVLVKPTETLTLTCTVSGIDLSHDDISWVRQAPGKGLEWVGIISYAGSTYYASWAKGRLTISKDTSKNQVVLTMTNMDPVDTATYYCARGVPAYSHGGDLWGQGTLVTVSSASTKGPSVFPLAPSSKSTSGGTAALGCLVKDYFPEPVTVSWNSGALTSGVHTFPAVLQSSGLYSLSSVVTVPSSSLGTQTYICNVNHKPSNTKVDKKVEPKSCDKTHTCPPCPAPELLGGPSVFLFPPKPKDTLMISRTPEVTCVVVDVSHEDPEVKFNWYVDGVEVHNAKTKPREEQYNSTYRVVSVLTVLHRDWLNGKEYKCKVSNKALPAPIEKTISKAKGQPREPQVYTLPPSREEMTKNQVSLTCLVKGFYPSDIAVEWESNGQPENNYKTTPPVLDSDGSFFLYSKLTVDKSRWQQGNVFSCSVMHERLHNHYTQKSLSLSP
light: DIVMTQSPATLSLSPGERATLSCTSSQSVYHANWLSWFQQKPGQPPKLLIYWASTLAYGVPSRFSGSGSGTDFTLTISSLQPEDAATYYCAGGYGGGRYAFGQGTKVEIKRTVAAPSVFIFPPSDEQLKSGTASVVCLLNNFYPREAKVQWKVDNALQSGNSQESVTEQDSKDSTYSLSSTLTLSKADYEKHKVYACEVTHQGLSSPVTKSFNRGEC
notes: copies: 2 + 2
B2: M103205H795-P1553m/M103202L889-SK1 (antibody, human IgG1, kappa, name in EU numbering)
heavy: QVTLKESGPVLVKPTETLTLTCTVSGIDLSHDDISWVRQAPGKGLEWVGIISYAGSTYYASWAKGRLTISKDTSKNQVVLTMTNMDPVDTATYYCARGVPAYSHGGDLWGQGTLVTVSSASTKGPSVFPLAPSSKSTSGGTAALGCLVKDYFPEPVTVSWNSGALTSGVHTFPAVLQSSGLYSLSSVVTVPSSSLGTQTYICNVNHKPSNTKVDKKVEPKSCDKTHTCPPCPAPELLGGPSVFLFPPKPKDTLMISRTPEVTCVVVDVSHEDPEVKFNWYVDGVEVHNAKTKPREEQYNSTYRVVSVLTVLHQDWLNGKEYKCKVSNKALPAPIEKTISKAKGQPREPQVYTLPPSREEMTKNQVSLTCLVKGFYPSDIAVEWESNRQPENNYKTTPPVLDSDRSFFLYSKLTVKKSRWQQGNVFSCSVMHEALHNHYTQKSLSLSP
light: B1 light
notes: copies: 2 + 2
B3: M103205H795-P1549m/M103202L889-SK1 (antibody, human IgG1, kappa, name in EU numbering)
heavy: B2 heavy with Q313R, K415D
light: B1 light
notes: copies: 2 + 2
B4: M103205H795-P1541m/M103202L889-SK1 (antibody, human IgG1, kappa, name in EU numbering)
heavy: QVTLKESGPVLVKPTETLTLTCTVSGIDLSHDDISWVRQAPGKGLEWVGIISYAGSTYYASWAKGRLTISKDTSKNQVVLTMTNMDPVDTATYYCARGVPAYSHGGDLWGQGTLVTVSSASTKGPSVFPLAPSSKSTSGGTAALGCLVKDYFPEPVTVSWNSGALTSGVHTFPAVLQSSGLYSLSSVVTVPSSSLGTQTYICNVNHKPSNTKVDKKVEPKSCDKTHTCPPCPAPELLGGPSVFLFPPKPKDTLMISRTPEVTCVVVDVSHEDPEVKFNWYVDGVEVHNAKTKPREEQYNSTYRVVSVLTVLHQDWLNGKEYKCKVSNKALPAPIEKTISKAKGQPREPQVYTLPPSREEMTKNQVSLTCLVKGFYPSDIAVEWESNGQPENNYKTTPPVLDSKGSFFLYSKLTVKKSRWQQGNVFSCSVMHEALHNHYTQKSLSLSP
light: B1 light
notes: copies: 2 + 2
B5: M103205H795-P1540m/M103202L889-SK1 (antibody, human IgG1, kappa, name in EU numbering)
heavy: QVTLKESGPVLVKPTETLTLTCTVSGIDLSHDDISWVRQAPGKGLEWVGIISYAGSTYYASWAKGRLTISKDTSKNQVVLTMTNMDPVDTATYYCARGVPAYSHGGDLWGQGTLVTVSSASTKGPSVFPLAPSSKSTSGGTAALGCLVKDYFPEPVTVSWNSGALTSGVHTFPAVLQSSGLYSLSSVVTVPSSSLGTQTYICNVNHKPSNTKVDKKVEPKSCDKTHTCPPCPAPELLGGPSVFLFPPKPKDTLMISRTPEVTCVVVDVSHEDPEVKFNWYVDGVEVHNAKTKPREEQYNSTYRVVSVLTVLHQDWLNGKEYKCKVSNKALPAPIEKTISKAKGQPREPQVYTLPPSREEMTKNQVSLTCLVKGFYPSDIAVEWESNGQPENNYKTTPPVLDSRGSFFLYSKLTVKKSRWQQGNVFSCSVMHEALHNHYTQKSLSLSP
light: B1 light
notes: copies: 2 + 2
B6: M103205H795-P1552m/M103202L889-SK1 (antibody, human IgG1, kappa, name in EU numbering)
heavy: B2 heavy with D403R, R404G
light: B1 light
notes: copies: 2 + 2
B7: M103205H795-P1542m/M103202L889-SK1 (antibody, human IgG1, kappa, name in EU numbering)
heavy: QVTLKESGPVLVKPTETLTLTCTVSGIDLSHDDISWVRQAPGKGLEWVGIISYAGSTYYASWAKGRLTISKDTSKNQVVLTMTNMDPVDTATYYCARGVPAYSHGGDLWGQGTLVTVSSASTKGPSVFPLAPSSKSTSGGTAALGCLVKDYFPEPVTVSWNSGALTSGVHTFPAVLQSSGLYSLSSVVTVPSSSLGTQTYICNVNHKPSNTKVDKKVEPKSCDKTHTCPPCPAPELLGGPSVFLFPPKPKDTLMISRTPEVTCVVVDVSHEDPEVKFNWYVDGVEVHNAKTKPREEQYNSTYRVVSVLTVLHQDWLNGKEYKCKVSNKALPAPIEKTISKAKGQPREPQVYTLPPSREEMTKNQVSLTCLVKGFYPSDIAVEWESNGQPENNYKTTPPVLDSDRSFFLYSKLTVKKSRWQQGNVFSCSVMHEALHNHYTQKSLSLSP
light: B1 light
notes: copies: 2 + 2
B8: M103205H795-P1544m/M103202L889-SK1 (antibody, human IgG1, kappa, name in EU numbering)
heavy: B2 heavy with Q313R, R387G, D403R, R404G
light: B1 light
notes: copies: 2 + 2
B9: MS1032LO06-P1383m (antibody, human IgG1, kappa, name in EU numbering)
heavy: B2 heavy with Q313R, R387G, S402R, R404G
light: B1 light
notes: also called M103205H795-P1383m; copies: 2 + 2
B10: M103205H795-P1547m/M103202L889-SK1 (antibody, human IgG1, kappa, name in EU numbering)
heavy: B2 heavy with Q313R, R387G, R404K
light: B1 light
notes: copies: 2 + 2
B11: M103205H795-P1555m/M103202L889-SK1 (antibody, human IgG1, kappa, name in EU numbering)
heavy: B2 heavy with R387G, E390R
light: B1 light
notes: copies: 2 + 2
B12: M103205H795-P1545m/M103202L889-SK1 (antibody, human IgG1, kappa, name in EU numbering)
heavy: B2 heavy with Q313R, R387G, D403K, R404G
light: B1 light
notes: copies: 2 + 2
B13: M103205H795-P1548m/M103202L889-SK1 (antibody, human IgG1, kappa, name in EU numbering)
heavy: B2 heavy with Q313R, D403R, R404G, K415D
light: B1 light
notes: copies: 2 + 2
B14: MS1032LO06-P1499m (antibody, human IgG1, kappa, name in EU numbering)
heavy: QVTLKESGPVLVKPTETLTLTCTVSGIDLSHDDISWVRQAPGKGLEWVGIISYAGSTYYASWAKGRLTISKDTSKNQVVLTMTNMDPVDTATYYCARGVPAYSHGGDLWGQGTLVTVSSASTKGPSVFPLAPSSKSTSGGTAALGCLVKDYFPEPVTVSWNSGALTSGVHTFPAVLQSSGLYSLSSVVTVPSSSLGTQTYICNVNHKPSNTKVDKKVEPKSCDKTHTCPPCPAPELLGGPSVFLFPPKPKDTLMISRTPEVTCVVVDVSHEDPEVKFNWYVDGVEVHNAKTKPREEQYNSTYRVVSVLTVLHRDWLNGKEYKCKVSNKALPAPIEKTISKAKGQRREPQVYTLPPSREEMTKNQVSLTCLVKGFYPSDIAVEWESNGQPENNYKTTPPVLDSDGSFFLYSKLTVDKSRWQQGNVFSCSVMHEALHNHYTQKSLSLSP
light: B1 light
notes: also called M103205H795-P1499m
B15: M103205H795-P1546m/M103202L889-SK1 (antibody, human IgG1, kappa, name in EU numbering)
heavy: B2 heavy with Q313R, R387G
light: B1 light
notes: copies: 2 + 2
B16: M103205H795-P1551m/M103202L889-SK1 (antibody, human IgG1, kappa, name in EU numbering)
heavy: B2 heavy with Q313R, R387G, E390R, K415D
light: B1 light
notes: copies: 2 + 2
B17: MS1032LO06-P1378m (antibody, human IgG1, kappa, name in EU numbering)
heavy: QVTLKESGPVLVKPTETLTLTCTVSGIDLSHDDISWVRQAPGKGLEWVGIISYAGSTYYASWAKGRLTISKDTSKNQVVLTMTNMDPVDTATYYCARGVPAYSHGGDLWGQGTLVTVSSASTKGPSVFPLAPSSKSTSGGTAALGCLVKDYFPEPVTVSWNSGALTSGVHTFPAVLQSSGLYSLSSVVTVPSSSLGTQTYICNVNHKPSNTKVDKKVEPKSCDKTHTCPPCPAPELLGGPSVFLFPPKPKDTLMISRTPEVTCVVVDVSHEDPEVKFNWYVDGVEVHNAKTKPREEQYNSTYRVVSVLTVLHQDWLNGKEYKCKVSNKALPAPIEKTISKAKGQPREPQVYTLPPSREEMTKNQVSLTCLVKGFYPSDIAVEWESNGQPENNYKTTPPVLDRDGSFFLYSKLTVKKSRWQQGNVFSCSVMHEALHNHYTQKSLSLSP
light: B1 light
notes: also called M103205H795-P1378m; copies: 2 + 2
B18: M103205H795-P1550m/M103202L889-SK1 (antibody, human IgG1, kappa, name in EU numbering)
heavy: B2 heavy with Q313R, R387G, E390R, D403R, R404G, K415D
light: B1 light
notes: copies: 2 + 2
B19: M103205H795-SG141/M103202L889-SK1 (antibody, human IgG1, kappa, name in EU numbering)
heavy: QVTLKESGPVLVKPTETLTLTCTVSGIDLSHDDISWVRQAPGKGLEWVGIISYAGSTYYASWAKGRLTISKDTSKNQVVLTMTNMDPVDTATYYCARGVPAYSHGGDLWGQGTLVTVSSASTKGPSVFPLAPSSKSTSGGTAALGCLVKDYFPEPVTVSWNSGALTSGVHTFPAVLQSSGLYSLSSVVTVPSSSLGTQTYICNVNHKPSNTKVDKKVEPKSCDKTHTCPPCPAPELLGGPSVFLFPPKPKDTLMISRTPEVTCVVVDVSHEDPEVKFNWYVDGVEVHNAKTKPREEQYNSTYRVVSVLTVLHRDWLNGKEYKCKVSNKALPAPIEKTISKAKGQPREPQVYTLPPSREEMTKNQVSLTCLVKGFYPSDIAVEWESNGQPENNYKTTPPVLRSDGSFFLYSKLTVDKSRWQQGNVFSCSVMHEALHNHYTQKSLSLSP
light: B1 light
notes: copies: 2 + 2
B20: M103205H795-P1543m/M103202L889-SK1 (antibody, human IgG1, kappa, name in EU numbering)
heavy: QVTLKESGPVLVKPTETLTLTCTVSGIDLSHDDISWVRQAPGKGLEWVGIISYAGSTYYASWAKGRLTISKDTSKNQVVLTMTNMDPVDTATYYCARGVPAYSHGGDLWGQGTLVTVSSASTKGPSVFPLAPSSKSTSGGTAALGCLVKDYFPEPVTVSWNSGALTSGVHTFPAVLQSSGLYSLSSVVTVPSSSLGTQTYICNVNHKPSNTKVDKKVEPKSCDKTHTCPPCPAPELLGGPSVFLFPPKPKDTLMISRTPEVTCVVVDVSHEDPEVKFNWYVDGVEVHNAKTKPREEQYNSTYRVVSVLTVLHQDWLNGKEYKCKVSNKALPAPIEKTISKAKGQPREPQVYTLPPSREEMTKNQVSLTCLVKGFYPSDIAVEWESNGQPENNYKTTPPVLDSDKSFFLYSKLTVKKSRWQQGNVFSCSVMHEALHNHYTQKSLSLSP
light: B1 light
notes: copies: 2 + 2
B21: M103205H795-MY174/M103202L889-SK1 (antibody, human IgG1, kappa, name in EU numbering)
heavy: B2 heavy with G238N, H270E, R387G, P398I, R404G, K415D
light: B1 light
notes: EU numbering
B22: M103205H795-MY199/M103202L889-SK1 (antibody, human IgG1, kappa, name in EU numbering)
heavy: B2 heavy with G238N, H270E, A332K, R387G, R404G, K415D
light: B1 light
notes: substitutions in EU numbering, introduced into M103205H795-SG1

Target: T1, soluble mouse FcγRII, His-tagged
Test: SPR, mouse FcγRII captured via His-tag, antigen-antibody complex injected, pH 7.4, 25 C
Protocol: Regarding the produced Fc region variant-containing antibodies, binding assays between soluble mouse FcγRII and antigen-antibody complexes were performed using BIACORE® T200 (GE Healthcare). Soluble mouse FcγRII was produced in the form of a His-tagged molecule by a method known to those skilled in the art. An appropriate amount of an anti-His antibody was fixed onto Sensor chip CM5 (GE Healthcare) by the amine coupling method using a His capture kit (GE Healthcare) to capture mouse FcγRII. Next, an antibody-antigen complex and a running buffer (as a reference solution) were injected, and interaction was allowed to take place with the mouse FcγRII captured onto the sensor chip. 20 mM N-(2-Acetamido)-2-aminoethanesulfonic acid, 150 mM NaCl, 1.2 mM CaCl₂), and 0.05% (w/v) TWEEN® 20 at pH7.4 was used as the running buffer, and the respective buffer was also used to dilute the soluble mouse FcγRII. To regenerate the sensor chip, 10 mM glycine-HCl at pH1.5 was used. All measurements were carried out at 25° C. […] To calculate the parameters, the BIACORE® T100 Evaluation Software (GE Healthcare) was used.

| biacore IC binding (relative, SG1 = 1.00) | Binder |
| --- | --- |
| 0.9 relative to SG1 | B1 |
| 1.47 relative to SG1 | B2 |
| 1.22 relative to SG1 | B3 |
| 1.57 relative to SG1 | B4 |
| 1.73 relative to SG1 | B5 |
| 2.19 relative to SG1 | B6 |
| 1.21 relative to SG1 | B7 |
| 2.04 relative to SG1 | B8 |
| 1.41 relative to SG1 | B9 |
| 1.33 relative to SG1 | B10 |
| 2.01 relative to SG1 | B11 |
| 1.8 relative to SG1 | B12 |
| 1.37 relative to SG1 | B13 |
| 1.98 relative to SG1 | B14 |
| 1.41 relative to SG1 | B15 |
| 1.33 relative to SG1 | B16 |
| 1.23 relative to SG1 | B17 |
| 1.63 relative to SG1 | B18 |
| 1.64 relative to SG1 | B19 |
| 1.19 relative to SG1 | B20 |

Target: T3, cynomolgus monkey FcγRIIIaS extracellular domain with C-terminal His-tag (cynomolgus monkey, UniProt A3RFZ7 21-206 (rhesus entry))
T3 construct: also called cyno FcgRIIIaS; cynoFcγRIIIaS; not shown: His-tag added to C-terminus
T3 sequence (A3RFZ7 21-206): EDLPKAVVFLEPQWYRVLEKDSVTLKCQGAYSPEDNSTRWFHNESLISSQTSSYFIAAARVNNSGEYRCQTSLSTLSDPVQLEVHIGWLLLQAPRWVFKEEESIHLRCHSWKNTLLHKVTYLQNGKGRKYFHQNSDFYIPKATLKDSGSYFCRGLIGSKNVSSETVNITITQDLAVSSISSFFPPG
Test: SPR Biacore, antibody captured, FcgR analyte
Protocol: The kinetic analysis of interactions between these antibodies and FcγR was carried out using BIACORE® T200 or BIACORE® 4000 (GE Healthcare). HBS-EP+ (GE Healthcare) was used as the running buffer, and the measurement temperature was set to 25° C. […] After the measurement, the antibody captured on the chip was washed off by allowing reaction with 10 mM glycine-HCl, pH1.5 and 25 mM NaOH so that the chip was regenerated and used repeatedly. The sensorgrams obtained as measurement results were analyzed by the 1:1 Langmuir binding model using the BIACORE® Evaluation Software to calculate the binding rate constant ka (L/mol/s) and dissociation rate constant kd (1/s), and the dissociation constant KD (mol/L) was calculated from these values. […] Regarding such interactions, KD values were calculated using the following 1:1 binding model described in BIACORE® T100 Software Handbook BR1006-48 Edition AE.

| KD fold (SG1 = 1) [fold] | Kd [nM] | Binder |
| --- | --- | --- |
| 0.14 | 2500 | B21 |
| 0.09 | – | B22 |

Target: T2, human FcγRIIb constitutively expressed …
Test: cell-based or functional assay

| celluar uptake (labelled human latent myostatin taken up as antigen-antibody complex) | Binder |
| --- | --- |
| 3.2 relative to SG1 = 1.00 | B1 |
| 2.86 relative to SG1 = 1.00 | B2 |
| 2.03 relative to SG1 = 1.00 | B3 |
| 7.17 relative to SG1 = 1.00 | B4 |
| 7.64 relative to SG1 = 1.00 | B5 |
| 4.44 relative to SG1 = 1.00 | B6 |
| 3.32 relative to SG1 = 1.00 | B7 |
| 7.66 relative to SG1 = 1.00 | B8 |
| 5.68 relative to SG1 = 1.00 | B9 |
| 4.85 relative to SG1 = 1.00 | B10 |
| 3.71 relative to SG1 = 1.00 | B11 |
| 7.73 relative to SG1 = 1.00 | B12 |
| 2.3 relative to SG1 = 1.00 | B13 |
| 3.61 relative to SG1 = 1.00 | B14 |
| 5.1 relative to SG1 = 1.00 | B15 |
| 2.91 relative to SG1 = 1.00 | B16 |
| 3.86 relative to SG1 = 1.00 | B17 |
| 6.43 relative to SG1 = 1.00 | B18 |
| 4.42 relative to SG1 = 1.00 | B19 |
| 3.7 relative to SG1 = 1.00 | B20 |
